Laboratory results: US20110059095A1 (Regeneron, published 2011)

T1: C-terminal biotinylated human PAR-2 peptide SEQ ID NO:871 (wild-type) (human, not fully specified; C-terminal biotin (K-B))
T1 construct: also called WT peptide
T1 peptide: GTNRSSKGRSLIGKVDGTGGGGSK

T2: C-terminal biotinylated human PAR-2 peptide SEQ ID NO:872 (Gly-35 to Ala) (human, not fully specified; C-terminal biotin (K-B))
T2 construct: alanine-scan mutant
T2 peptide: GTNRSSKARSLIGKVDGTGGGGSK

T3: C-terminal biotinylated human PAR-2 peptide SEQ ID NO:874 (Ser-37 to Ala) (human, not fully specified; C-terminal biotin (K-B))
T3 construct: alanine-scan mutant
T3 peptide: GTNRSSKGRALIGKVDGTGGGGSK

T4: C-terminal biotinylated human PAR-2 peptide SEQ ID NO:877 (Gly-40 to Ala) (human, not fully specified; C-terminal biotin (K-B))
T4 construct: alanine-scan mutant
T4 peptide: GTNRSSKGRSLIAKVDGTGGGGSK

T5: C-terminal biotinylated human PAR-2 peptide SEQ ID NO:882 (Thr-45 to Ala) (human, not fully specified; C-terminal biotin (K-B))
T5 construct: alanine-scan mutant
T5 peptide: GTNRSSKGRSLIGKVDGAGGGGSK

T6: C-terminal biotinylated human PAR-2 peptide SEQ ID NO:873 (Arg-36 to Ala) (human, not fully specified; C-terminal biotin (K-B))
T6 construct: alanine-scan mutant
T6 peptide: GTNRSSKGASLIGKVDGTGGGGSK

T7: C-terminal biotinylated human PAR-2 peptide SEQ ID NO:875 (Leu-38 to Ala) (human, not fully specified; C-terminal biotin (K-B))
T7 construct: alanine-scan mutant
T7 peptide: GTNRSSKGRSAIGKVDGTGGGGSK

T8: C-terminal biotinylated human PAR-2 peptide SEQ ID NO:876 (Ile-39 to Ala) (human, not fully specified; C-terminal biotin (K-B))
T8 construct: alanine-scan mutant
T8 peptide: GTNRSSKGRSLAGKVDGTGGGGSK

T9: C-terminal biotinylated human PAR-2 peptide SEQ ID NO:878 (Lys-41 to Ala) (human, not fully specified; C-terminal biotin (K-B))
T9 construct: alanine-scan mutant
T9 peptide: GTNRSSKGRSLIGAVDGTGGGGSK

T10: C-terminal biotinylated human PAR-2 peptide SEQ ID NO:879 (Val-42 to Ala) (human, not fully specified; C-terminal biotin (K-B))
T10 construct: alanine-scan mutant
T10 peptide: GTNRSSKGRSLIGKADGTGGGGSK

T11: C-terminal biotinylated human PAR-2 peptide SEQ ID NO:880 (Asp-43 to Ala) (human, not fully specified; C-terminal biotin (K-B))
T11 construct: alanine-scan mutant
T11 peptide: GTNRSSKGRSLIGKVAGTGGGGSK

T12: C-terminal biotinylated human PAR-2 peptide SEQ ID NO:881 (Gly-44 to Ala) (human, not fully specified; C-terminal biotin (K-B))
T12 construct: alanine-scan mutant
T12 peptide: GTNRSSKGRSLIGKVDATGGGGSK

T13: C-terminal biotinylated human PAR-2 14-mer peptide SEQ ID NO:884 (SLIGKVDGTSHVTG, wild-type) (human, not fully specified; C-terminal biotin (K-B))
T13 peptide: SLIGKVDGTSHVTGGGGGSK

T14: C-terminal biotinylated human PAR-2 14-mer peptide SEQ ID NO:885 (Val-42 to Ala) (human, not fully specified; C-terminal biotin (K-B))
T14 peptide: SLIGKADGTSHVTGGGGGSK

T15: C-terminal biotinylated human PAR-2 14-mer peptide SEQ ID NO:886 (Asp-43 to Ala) (human, not fully specified; C-terminal biotin (K-B))
T15 peptide: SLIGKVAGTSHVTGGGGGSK

T16: C-terminal biotinylated human PAR-2 14-mer peptide SEQ ID NO:887 (Val-42 and Asp-43 to Ala) (human, not fully specified; C-terminal biotin (K-B))
T16 peptide: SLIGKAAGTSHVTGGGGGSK

B1: H4H581P (antibody, human IgG4, V domains shown)
VH: QVQLVESGGGVVQPGRSLRLSCVASGFTFSRYGIHWVRQAPGKGLEWVIVISYDGINKYYADSVKGRFTISRDNSKNTVYLQMNSLRAEDTAVYYCAKGDFWSGYFDYWGQGTLVTVSS
VL: DIVMTQTPLSSPVTLGQPASISCRSSQSLVHSDGNTYLSWLHQRPGQPPRLLIYKISNRFSGVPDRFSGSGAGTDFTLQISRVEAEDVGIYYCMQATQFPTFGGGTKVEIK
notes: also called mAb H4H581P; H1H581P variable regions
B2: H4H588N (antibody, human IgG4, V domains shown)
VH: EVQLLESGGGLVQPGGSLRLSCAASGFTFSSYAMTWVRQAPGKGLYWVSAISGGRGSAYYADSVKGRFTISRDNSKNTLYLQMNSLRAEDTAVYYCAKEGDSGYDLAYWGRGTLVTVSS
VL: DIQMTQSPSSLSASVGDRVTITCRARQGISNNLAWLQQKPGKAPKSLIYAASSLQSGIPSKFSGSGSGTYFTLTISSLQPEDFATYYCQQYKSSPLTFGGGTKVEIK
notes: also called H2M588N variable regions

How the values were obtained:
[1] = target: T1, C-terminal biotinylated human PAR-2 …; experiment: BLI Exp1
Description: (§1) In order to more particularly identify the amino acids of PAR-2 with which the PAR-2 antibodies interact, an alanine scanning study was carried out using peptides comprising the activating PAR-2 protease cleavage site.
(§2) The ability of each peptide mutant to bind to PAR-2 antibodies was measured using biolayer interferometry (Octet Red; ForteBio). Each peptide (2.5 μg/ml) was captured on streptavidin coated biosensor tips (Octet SA sensor) for 10 seconds. To measure binding and dissociation between each peptide and PAR-2 antibody, the peptide-coated biosensors were contacted with 200 nM solutions of PAR-2 antibodies for 5 minutes (binding) followed by transfer to buffer with no antibody for 10 min (dissociation). […] The results are expressed as percent binding and percent T_{1/2} relative to WT peptide (Tables 24-28).

[2] = target: T2, C-terminal biotinylated human PAR-2 …; experiment: BLI Exp1
Description: as §1, §2

[3] = target: T3, C-terminal biotinylated human PAR-2 …; experiment: BLI Exp1
Description: as §1, §2

[4] = target: T4, C-terminal biotinylated human PAR-2 …; experiment: BLI Exp1
Description: as §1, §2

[5] = target: T5, C-terminal biotinylated human PAR-2 …; experiment: BLI Exp1
Description: as §1, §2

[6] = target: T1, C-terminal biotinylated human PAR-2 …; experiment: BLI Exp2
Description: as §1, §2

[7] = target: T2, C-terminal biotinylated human PAR-2 …; experiment: BLI Exp2
Description: as §1, §2

[8] = target: T6, C-terminal biotinylated human PAR-2 …; experiment: BLI Exp2
Description: as §1, §2

[9] = target: T3, C-terminal biotinylated human PAR-2 …; experiment: BLI Exp2
Description: as §1, §2

[10] = target: T7, C-terminal biotinylated human PAR-2 …; experiment: BLI Exp2
Description: as §1, §2

[11] = target: T8, C-terminal biotinylated human PAR-2 …; experiment: BLI Exp2
Description: as §1, §2

[12] = target: T9, C-terminal biotinylated human PAR-2 …; experiment: BLI Exp2
Description: as §1, §2

[13] = target: T10, C-terminal biotinylated human PAR-2 …; experiment: BLI Exp2
Description: as §1, §2

[14] = target: T11, C-terminal biotinylated human PAR-2 …; experiment: BLI Exp2
Description: as §1, §2

[15] = target: T12, C-terminal biotinylated human PAR-2 …; experiment: BLI Exp2
Description: as §1, §2

[16] = target: T5, C-terminal biotinylated human PAR-2 …; experiment: BLI Exp2
Description: as §1, §2

[17] = target: T13, C-terminal biotinylated human PAR-2 …; experiment: BLI Exp2
Description: as §1, §2

[18] = target: T14, C-terminal biotinylated human PAR-2 …; experiment: BLI Exp2
Description: as §1, §2

[19] = target: T15, C-terminal biotinylated human PAR-2 …; experiment: BLI Exp2
Description: as §1, §2

[20] = target: T16, C-terminal biotinylated human PAR-2 …; experiment: BLI Exp2
Description: as §1, §2

Binder | % Rel Binding [1] | % Rel T1/2 [1] | % Rel Binding [2] | % Rel T1/2 [2] | % Rel Binding [3] | % Rel T1/2 [3] | % Rel Binding [4] | % Rel T1/2 [4] | % Rel Binding [5] | % Rel T1/2 [5] | % Rel Binding [6] | % Rel T1/2 [6] | % Rel Binding [7] | % Rel T1/2 [7] | % Rel Binding [8] | % Rel T1/2 [8] | % Rel Binding [9] | % Rel T1/2 [9] | % Rel Binding [10] | % Rel T1/2 [10] | also measured
B1 | 100% | 100% | 78% | 118% | 45% | 7% | 101% | 33% | 65% | 129% | 100% | 100% | 97% | 117% | 105% | 90% | 56% | 3% | 19% | 0% | % Rel Binding [11]: 14%; % Rel T1/2 [11]: 0%; % Rel Binding [12]: 109%; % Rel T1/2 [12]: 49%; % Rel Binding [13]: 46%; % Rel T1/2 [13]: 1%; % Rel Binding [14]: 5%; % Rel T1/2 [14]: 4%; % Rel Binding [15]: 102%; % Rel T1/2 [15]: 124%; % Rel Binding [16]: 91%; % Rel T1/2 [16]: 94%; % Rel Binding [17]: 100%; % Rel T1/2 [17]: 100%; % Rel Binding [18]: 19%; % Rel T1/2 [18]: 0%; binding result [19]: no binding (tested: 200 nM antibody); binding result [20]: no binding (tested: 200 nM antibody)
B2 | 100% | 100% | 122% | 100% | 119% | 100% | 30% | 1% | 125% | 94% | 100% | 100% | 99% | 253% | 115% | 180% | 93% | 70% | 105% | 42% | % Rel Binding [11]: 85%; % Rel T1/2 [11]: 8%; % Rel Binding [12]: 121%; % Rel T1/2 [12]: 60%; % Rel Binding [13]: 52%; % Rel T1/2 [13]: 0%; % Rel Binding [14]: 8%; % Rel T1/2 [14]: 5%; % Rel Binding [15]: 67%; % Rel T1/2 [15]: 1%; % Rel Binding [16]: 121%; % Rel T1/2 [16]: 33%; % Rel Binding [17]: 100%; % Rel T1/2 [17]: 100%; % Rel Binding [18]: 83%; % Rel T1/2 [18]: 0%; binding result [19]: no binding (tested: 200 nM antibody); binding result [20]: no binding (tested: 200 nM antibody)
